{"source": "paper PMC6817362", "biological_target": "Recombinant mouse SIGN-R1 Fc chimera protein, extracellular domain (mouse) (UniProt Q8CJ91)", "sequence (Q8CJ91 74-325, change not shown)": "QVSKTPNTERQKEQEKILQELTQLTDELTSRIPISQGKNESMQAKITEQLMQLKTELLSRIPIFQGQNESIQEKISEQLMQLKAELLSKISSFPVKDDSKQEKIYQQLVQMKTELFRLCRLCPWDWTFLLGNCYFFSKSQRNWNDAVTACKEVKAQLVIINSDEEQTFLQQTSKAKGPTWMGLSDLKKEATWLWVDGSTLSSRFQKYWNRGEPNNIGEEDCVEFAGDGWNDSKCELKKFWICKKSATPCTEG", "test": "SPR", "data": [{"substance": "Hemagglutinin HA from Influenza A H1N1 (A/Puerto Rico/8/34) (from UniProt P03452) (natural protein)", "values": [{"measurement": "Kd", "value": 142, "unit": "nM"}]}]}
